Results: patent US9993529B2, “Stable formulations of a hyaluronan-degrading enzyme” (Halozyme, Inc., priority 2011, dated 2018)

Assay: RP-HPLC insulin apparent solubility / percent recovery (content)
Settings: for Solubility of Lispro: 7 days at 2-8° C.
Summary of the method: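 Vial samples withdrawn at each time point, centrifuged, held at 4 °C, run in duplicate by RP-HPLC. Apparent solubility = combined insulin main and desamido peak areas as percent versus standards/initial formulation; purity = main insulin peak as percent of all insulin species.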

In the case of “insulin Lispro: LysB28, ProB29 human insulin analog”, the “Solubility of Lispro” value (0.2% methylparaben + […] m-cresol, pH 6.6, NaCl 50 mM) is reported as 42.0%, the “Solubility of Lispro” value (0.2% methylparaben + […] m-cresol, pH 6.6, NaCl 80 mM) is reported as 28.2% and the “Solubility of Lispro” value (0.2% methylparaben + […] m-cresol, pH 6.6, NaCl 110 mM) is reported as 24.1%. For the same substance, the “Solubility of Lispro” value (0.2% methylparaben + […] m-cresol, pH 6.6, NaCl 140 mM) was 25.9%, the “Solubility of Lispro” value (0.2% methylparaben + […] m-cresol, pH 6.8, NaCl 50 mM) was 82.3% and the “Solubility of Lispro” value (0.2% methylparaben + […] m-cresol, pH 6.8, NaCl 80 mM) was 62.6%. For the same substance, the “Solubility of Lispro” value (0.2% methylparaben + […] m-cresol, pH 6.8, NaCl 110 mM) was 47.8%, the “Solubility of Lispro” value (0.2% methylparaben + […] m-cresol, pH 6.8, NaCl 140 mM) was 42.0% and the “Solubility of Lispro” value (0.2% methylparaben + […] m-cresol, pH 7.0, NaCl 50 mM) was 95.3%. For the same substance, the “Solubility of Lispro” value (0.2% methylparaben + […] m-cresol, pH 7.0, NaCl 80 mM) was 98.1%, the “Solubility of Lispro” value (0.2% methylparaben + […] m-cresol, pH 7.0, NaCl 110 mM) was 94.1% and the “Solubility of Lispro” value (0.2% methylparaben + […] m-cresol, pH 7.0, NaCl 140 mM) was 65.6%. For the same substance, the “Solubility of Lispro” value (0.2% methylparaben + […] m-cresol, pH 7.2, NaCl 50 mM) was 95.7%, the “Solubility of Lispro” value (0.2% methylparaben + […] m-cresol, pH 7.2, NaCl 80 mM) was 97.9% and the “Solubility of Lispro” value (0.2% methylparaben + […] m-cresol, pH 7.2, NaCl 110 mM) was 99.6%. The “Solubility of Lispro” value (0.2% methylparaben + […] m-cresol, pH 7.2, NaCl 140 mM) was 98.0%, the “Solubility of Lispro” value (0.2% methylparaben + […] m-cresol, pH 7.4, NaCl 50 mM) was 95.6% and the “Solubility of Lispro” value (0.2% methylparaben + […] m-cresol, pH 7.4, NaCl 80 mM) was 98.2%. The “Solubility of Lispro” value (0.2% methylparaben + […] m-cresol, pH 7.4, NaCl 110 mM) was 99.9%, the “Solubility of Lispro” value (0.2% methylparaben + […] m-cresol, pH 7.4, NaCl 140 mM) was 98.5% and the “Solubility of Lispro” value (0.2% methylparaben + […] m-cresol, pH 7.6, NaCl 50 mM) was 95.7%. For the same substance, the “Solubility of Lispro” value (0.2% methylparaben + […] m-cresol, pH 7.6, NaCl 80 mM) was 98.3%, the “Solubility of Lispro” value (0.2% methylparaben + […] m-cresol, pH 7.6, NaCl 110 mM) was 100.2% and the “Solubility of Lispro” value (0.2% methylparaben + […] m-cresol, pH 7.6, NaCl 140 mM) was 98.8%. The “Solubility of Lispro” value (0.2% phenol + […] m-cresol, pH 6.6, NaCl 50 mM) was 52.8%, the “Solubility of Lispro” value (0.2% phenol + […] m-cresol, pH 6.6, NaCl 80 mM) was 32.8% and the “Solubility of Lispro” value (0.2% phenol + […] m-cresol, pH 6.6, NaCl 110 mM) was 26.0%. For the same substance, the “Solubility of Lispro” value (0.2% phenol + […] m-cresol, pH 6.8, NaCl 50 mM) was 91.4%, the “Solubility of Lispro” value (0.2% phenol + […] m-cresol, pH 6.8, NaCl 80 mM) was 65.1% and the “Solubility of Lispro” value (0.2% phenol + […] m-cresol, pH 6.8, NaCl 110 mM) was 44.9%. The “Solubility of Lispro” value (0.2% phenol + […] m-cresol, pH 6.8, NaCl 140 mM) was 40.4%, the “Solubility of Lispro” value (0.2% phenol + […] m-cresol, pH 7.0, NaCl 50 mM) was 97.4% and the “Solubility of Lispro” value (0.2% phenol + […] m-cresol, pH 7.0, NaCl 80 mM) was 95.5%. For the same substance, the “Solubility of Lispro” value (0.2% phenol + […] m-cresol, pH 7.0, NaCl 110 mM) was 75.2%, the “Solubility of Lispro” value (0.2% phenol + […] m-cresol, pH 7.0, NaCl 140 mM) was 65.3% and the “Solubility of Lispro” value (0.2% phenol + […] m-cresol, pH 7.2, NaCl 50 mM) was 97.6%. For the same substance, the “Solubility of Lispro” value (0.2% phenol + […] m-cresol, pH 7.2, NaCl 80 mM) was 97.4%, the “Solubility of Lispro” value (0.2% phenol + […] m-cresol, pH 7.2, NaCl 110 mM) was 95.2% and the “Solubility of Lispro” value (0.2% phenol + […] m-cresol, pH 7.2, NaCl 140 mM) was 90.8%. For the same substance, the “Solubility of Lispro” value (0.2% phenol + […] m-cresol, pH 7.4, NaCl 50 mM) was 97.7%, the “Solubility of Lispro” value (0.2% phenol + […] m-cresol, pH 7.4, NaCl 80 mM) was 97.6% and the “Solubility of Lispro” value (0.2% phenol + […] m-cresol, pH 7.4, NaCl 110 mM) was 97.0%. For the same substance, the “Solubility of Lispro” value (0.2% phenol + […] m-cresol, pH 7.4, NaCl 140 mM) was 96.9%, the “Solubility of Lispro” value (0.2% phenol + […] m-cresol, pH 7.6, NaCl 50 mM) was 97.5% and the “Solubility of Lispro” value (0.2% phenol + […] m-cresol, pH 7.6, NaCl 80 mM) was 97.7%. For the same substance, the “Solubility of Lispro” value (0.2% phenol + […] m-cresol, pH 7.6, NaCl 110 mM) was 97.3%, the “Solubility of Lispro” value (0.2% phenol + […] m-cresol, pH 7.6, NaCl 140 mM) was 96.8% and the “Solubility (% of 120 U/mL)” value (2-8° C., pH 7.0, after 1 week at 80, 110 or 140 mM NaCl) was “below 65%”. The “Solubility of Lispro” value ([…] phenol + […] m-cresol, pH 6.6, NaCl 50 mM) was 60.3%, the “Solubility of Lispro” value ([…] phenol + […] m-cresol, pH 6.6, NaCl 80 mM) was 43.3% and the “Solubility of Lispro” value ([…] phenol + […] m-cresol, pH 6.6, NaCl 110 mM) was 24.2%. For the same substance, the “Solubility of Lispro” value ([…] phenol + […] m-cresol, pH 6.6, NaCl 140 mM) was 27.7%, the “Solubility of Lispro” value ([…] phenol + […] m-cresol, pH 6.8, NaCl 50 mM) was 93.6% and the “Solubility of Lispro” value ([…] phenol + […] m-cresol, pH 6.8, NaCl 80 mM) was 60.8%. For the same substance, the “Solubility of Lispro” value ([…] phenol + […] m-cresol, pH 6.8, NaCl 110 mM) was 44.9%, the “Solubility of Lispro” value ([…] phenol + […] m-cresol, pH 6.8, NaCl 140 mM) was 35.9% and the “Solubility of Lispro” value ([…] phenol + […] m-cresol, pH 7.0, NaCl 50 mM) was 98.7%. For the same substance, the “Solubility of Lispro” value ([…] phenol + […] m-cresol, pH 7.0, NaCl 80 mM) was 96.4%, the “Solubility of Lispro” value ([…] phenol + […] m-cresol, pH 7.0, NaCl 110 mM) was 77.0% and the “Solubility of Lispro” value ([…] phenol + […] m-cresol, pH 7.0, NaCl 140 mM) was 61.2%. The “Solubility of Lispro” value ([…] phenol + […] m-cresol, pH 7.2, NaCl 50 mM) was 100.5%, the “Solubility of Lispro” value ([…] phenol + […] m-cresol, pH 7.2, NaCl 80 mM) was 99.2% and the “Solubility of Lispro” value ([…] phenol + […] m-cresol, pH 7.2, NaCl 110 mM) was 97.3%. The “Solubility of Lispro” value ([…] phenol + […] m-cresol, pH 7.2, NaCl 140 mM) was 93.1%, the “Solubility of Lispro” value ([…] phenol + […] m-cresol, pH 7.4, NaCl 50 mM) was 100.8% and the “Solubility of Lispro” value ([…] phenol + […] m-cresol, pH 7.4, NaCl 80 mM) was 101.8%. For the same substance, the “Solubility of Lispro” value ([…] phenol + […] m-cresol, pH 7.4, NaCl 110 mM) was 100.7%, the “Solubility of Lispro” value ([…] phenol + […] m-cresol, pH 7.4, NaCl 140 mM) was 98.4% and the “Solubility of Lispro” value ([…] phenol + […] m-cresol, pH 7.6, NaCl 50 mM) was 100.9%. For the same substance, the “Solubility of Lispro” value ([…] phenol + […] m-cresol, pH 7.6, NaCl 80 mM) was 102.1%, the “Solubility of Lispro” value ([…] phenol + […] m-cresol, pH 7.6, NaCl 110 mM) was 101.6% and the “Solubility of Lispro” value ([…] phenol + […] m-cresol, pH 7.6, NaCl 140 mM) was 101.3%.
